Earlier results, collected in publication PMC4327442.

Biological target: IL-18 (Homo sapiens) (UniProt Q14116)
Sequence (Q14116 37-193): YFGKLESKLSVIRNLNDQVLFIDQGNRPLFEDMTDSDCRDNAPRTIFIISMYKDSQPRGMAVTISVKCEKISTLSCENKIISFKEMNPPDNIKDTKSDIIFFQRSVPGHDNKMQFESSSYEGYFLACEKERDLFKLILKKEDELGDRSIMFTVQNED

Chain of IL-18BP (O95998 31-194): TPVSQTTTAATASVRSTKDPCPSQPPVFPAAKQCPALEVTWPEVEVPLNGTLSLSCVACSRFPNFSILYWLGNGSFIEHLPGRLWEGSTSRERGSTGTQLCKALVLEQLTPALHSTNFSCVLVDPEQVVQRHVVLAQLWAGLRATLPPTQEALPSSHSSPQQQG

IL-18BP (from UniProt O95998)
Kd: 0.399 nM
